Assay results from the supplement of paper PMC10724198.
± gives the standard deviation of the averaged measurements.

Test system: Saccharomyces cerevisiae
Assay: protein stability index of tFT-peptide fusion (C-terminal peptide) (PSI (0-1 scale)); higher = more stable (slower turnover)
Conditions: temperature: 30 C
Procedure: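 MPS profiling in S. cerevisiae of the yeast C-terminome library: the last 12 aa of each annotated ORF are fused to the C-terminus of a sfGFP-mCherry timer, after a GGGS linker. Cells are FACS-sorted into 8 mCherry/sfGFP bins and deep-sequenced. PSI runs from 0 (unstable) to 1 (stable); wild type and das1Δ backgrounds, two technical replicates each.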

[1] = genetic background: das1 deletion

| Sequence | protein stability index [1] | protein stability index (genetic background: wild type) |
| --- | --- | --- |
| YLERRVRTLKKD [MRPL32 C-terminal 12 aa] | 0.713 ± 0.032 | 0.68 ± 0.013 |
| EPAYDGASVEQQ [THR1 C-terminal 12 aa] | 0.688 ± 0.0074 | 0.6724 ± 0.0055 |
| LASEAAVGCNKS [YKL156C-A C-terminal 12 aa] | 0.688 ± 0.0092 | 0.745 ± 0.055 |
| EEAREEFENIAL [SMI1 C-terminal 12 aa] | 0.679 ± 0.0096 | 0.645 ± 0.017 |
| VDYKTEPLQPLI [RGI2 C-terminal 12 aa] | 0.7 ± 0.022 | 0.678 ± 0.0079 |
| HKSLKLAKKDKK [AGE1 C-terminal 12 aa] | 0.6837 ± 0.0037 | 0.738 ± 0.13 |
| EKKKIFKGNKTD [YLR030W C-terminal 12 aa] | 0.696 ± 0.036 | 0.669 ± 0.012 |
| SPPEEESQHGDV [SHB17 C-terminal 12 aa] | 0.696 ± 0.022 | 0.75 ± 0.032 |
| AVHSFNTPAVQS [COX1 C-terminal 12 aa] | 0.6863 ± 0.0034 | 0.676 ± 0.019 |
| DVEIDEDEEYFY [SPO12 C-terminal 12 aa] | 0.707 ± 0.0084 | 0.71 ± 0.01 |
| VRKDYIALINQY [ADI1 C-terminal 12 aa] | 0.6715 ± 0.0042 | 0.652 ± 0.01 |
| SDEGHAHEDCAK [LOG1 C-terminal 12 aa] | 0.679 ± 0.011 | 0.669 ± 0.015 |
| NLANDEQPLHNL [MDM30 C-terminal 12 aa] | 0.699 ± 0.02 | 0.659 ± 0.03 |
| TRPPCSPIAGYA [YOR345C C-terminal 12 aa] | 0.608 ± 0.017 | 0.628 ± 0.012 |
| TILLFYPPLLKR [YDR544C C-terminal 12 aa] | 0.627 ± 0.0074 | 0.6119 ± 0.0047 |
| QHIKTHKKHGDI [MSN2 C-terminal 12 aa] | 0.67783 ± 0.00033 | 0.667 ± 0.014 |
| ATSLSPNKASAS [YJL026C-A C-terminal 12 aa] | 0.685 ± 0.015 | 0.6601 ± 0.0011 |
| KFFLTISADVSF [YNL057W C-terminal 12 aa] | 0.6369 ± 0.0022 | 0.647 ± 0.03 |
| GKGKKKMVVLEW [ETR1 C-terminal 12 aa] | 0.692 ± 0.026 | 0.712 ± 0.018 |
| SLEAVSKMDKLA [AAT1 C-terminal 12 aa] | 0.723 ± 0.012 | 0.679 ± 0.014 |
| VNRQLEMDLPIE [YKL066W C-terminal 12 aa] | 0.7074 ± 0.0056 | 0.712 ± 0.042 |

| Sequence | protein stability index [1] | protein stability index (genetic background: wild type) |
| --- | --- | --- |
| KHKNYLSFNFTK [YLL065W C-terminal 12 aa] | 0.698 ± 0.038 | 0.69 ± 0.012 |
| ALAASRAEQPPA [YCR049C C-terminal 12 aa] | 0.691 ± 0.0084 | 0.712 ± 0.012 |
| LALYKKAYGIEF [STP2 C-terminal 12 aa] | 0.686 ± 0.031 | 0.6671 ± 0.0058 |
| ESGLQSINESTL [ALY2 C-terminal 12 aa] | 0.7074 ± 0.0047 | 0.706 ± 0.05 |
| RKNNKKSISYYG [YOR203W C-terminal 12 aa] | 0.706 ± 0.011 | 0.731 ± 0.0063 |
| SSKKNNKFRRIR [CST9 C-terminal 12 aa] | 0.685 ± 0.019 | 0.714 ± 0.032 |
| LLYCNIYVYYRF [KAR1 C-terminal 12 aa] | 0.15 ± 0.014 | 0.161 ± 0.0022 |
| ITKQKALDYHYL [CBS2 C-terminal 12 aa] | 0.698 ± 0.0089 | 0.667 ± 0.016 |
| EADFRKRFPSKV [PRK1 C-terminal 12 aa] | 0.694 ± 0.0081 | 0.669 ± 0.021 |
| SLQFIGEETSSL [YDL026W C-terminal 12 aa] | 0.708 ± 0.01 | 0.684 ± 0.012 |
| KEEEGSFNNVIG [PRE2 C-terminal 12 aa] | 0.702 ± 0.012 | 0.66 ± 0.014 |
| LPKIIKKHQRLS [MRH4 C-terminal 12 aa] | 0.724 ± 0.056 | 0.191 ± 0.0044 |
| EEIRRENFRVIE [KTR7 C-terminal 12 aa] | 0.713 ± 0.012 | 0.677 ± 0.029 |
| TQLRYTSRGLYR [ECM30 C-terminal 12 aa] | 0.699 ± 0.018 | 0.689 ± 0.023 |
| VTVLRNSQYFFS [RPO41 C-terminal 12 aa] | 0.741 ± 0.039 | 0.728 ± 0.018 |
| KDEVTDDMQLEV [JLP2 C-terminal 12 aa] | 0.6997 ± 0.002 | 0.68 ± 0.03 |
| TGFFGKLKKLFK [CRP1 C-terminal 12 aa] | 0.762 ± 0.0086 | 0.724 ± 0.0086 |
| LYEEHQQMLDKQ [IPI3 C-terminal 12 aa] | 0.7227 ± 0.0019 | 0.726 ± 0.088 |
| SGSRVVRKLFEL [FUS2 C-terminal 12 aa] | 0.6964 ± 0.0031 | 0.7 ± 0.016 |
| AGALAAVAAMLL [TIR4 C-terminal 12 aa] | 0.707 ± 0.037 | 0.679 ± 0.024 |
| AINEGHEGFGLA [TOM1 C-terminal 12 aa] | 0.663 ± 0.025 | 0.687 ± 0.024 |

| Sequence | protein stability index [1] | protein stability index (genetic background: wild type) |
| --- | --- | --- |
| TQSGDDYTIRLT [APM1 C-terminal 12 aa] | 0.703 ± 0.015 | 0.698 ± 0.014 |
| TKEAKRRAMKKK [UME6 C-terminal 12 aa] | 0.706 ± 0.028 | 0.677 ± 0.013 |
| KRNFCPFHDAVF [PIB1 C-terminal 12 aa] | 0.712 ± 0.01 | 0.716 ± 0.043 |
| QSILACCQESNK [LCB1 C-terminal 12 aa] | 0.702 ± 0.0093 | 0.645 ± 0.0071 |
| HRDIVSAGSLYL [MTR4 C-terminal 12 aa] | 0.723 ± 0.034 | 0.7 ± 0.036 |
| AAVAKQKVSDSK [DHR2 C-terminal 12 aa] | 0.664 ± 0.024 | 0.654 ± 0.024 |
| ILRQYFTDLASS [REA1 C-terminal 12 aa] | 0.675 ± 0.026 | 0.696 ± 0.041 |
| LAFSGGLANSIA [DSE4 C-terminal 12 aa] | 0.712 ± 0.00097 | 0.677 ± 0.024 |
| GLGDFGDRYYCV [FUR1 C-terminal 12 aa] | 0.7105 ± 0.0059 | 0.697 ± 0.007 |
| SSAASSQVPAST [PTK1 C-terminal 12 aa] | 0.694 ± 0.025 | 0.6743 ± 0.0022 |
| AAQLSSILPKYM [YLR140W C-terminal 12 aa] | 0.674 ± 0.056 | 0.566 ± 0.063 |
| LEVTTKPREWVK [HEM13 C-terminal 12 aa] | 0.687 ± 0.018 | 0.712 ± 0.069 |
| DALDIANRIGYI [RPL25 C-terminal 12 aa] | 0.668 ± 0.027 | 0.683 ± 0.012 |
| HKVIAVGRIACQ [SKI7 C-terminal 12 aa] | 0.5897 ± 0.0016 | 0.611 ± 0.016 |
| CADCGTILNNFR [DGR2 C-terminal 12 aa] | 0.731 ± 0.017 | 0.748 ± 0.045 |
| YAKFGDNINLER [GIM3 C-terminal 12 aa] | 0.70175 ± 0.00021 | 0.698 ± 0.031 |
| KRLIGIAEATLN [SEC31 C-terminal 12 aa] | 0.666 ± 0.032 | 0.667 ± 0.014 |
| AAVRQRREVNKK [ARO4 C-terminal 12 aa] | 0.6893 ± 0.006 | 0.676 ± 0.04 |
| QSPLMDMLAPQL [TOM6 C-terminal 12 aa] | 0.706 ± 0.015 | 0.7117 ± 0.00029 |
| CDVKSSIIVGIL [YLR358C C-terminal 12 aa] | 0.638 ± 0.02 | 0.655 ± 0.059 |
| FLDKNKKEQSDS [ECM9 C-terminal 12 aa] | 0.678 ± 0.029 | 0.771 ± 0.08 |

| Sequence | protein stability index [1] | protein stability index (genetic background: wild type) |
| --- | --- | --- |
| PPASESNKGINE [YDR008C C-terminal 12 aa] | 0.694 ± 0.013 | 0.661 ± 0.032 |
| FSMLANRITIGL [YJL175W C-terminal 12 aa] | 0.657 ± 0.016 | 0.64 ± 0.014 |
| MKDFSKNEQKEK [SEY1 C-terminal 12 aa] | 0.719 ± 0.037 | 0.72 ± 0.043 |
| MRIRSDMSMMRW [COR1 C-terminal 12 aa] | 0.71 ± 0.0094 | 0.7133 ± 0.0025 |
| QIRSVFSGVYGG [ASP3-1 C-terminal 12 aa] | 0.691 ± 0.013 | 0.689 ± 0.049 |
| KISFKWKKQRKR [UTP11 C-terminal 12 aa] | 0.71 ± 0.01 | 0.655 ± 0.015 |
| KPIETVFDEETV [YIP3 C-terminal 12 aa] | 0.697 ± 0.018 | 0.72 ± 0.041 |
| RYRLEKVIGKRW [SPO20 C-terminal 12 aa] | 0.704 ± 0.03 | 0.676 ± 0.022 |
| MRNNNDTTFKSF [YNL013C C-terminal 12 aa] | 0.685 ± 0.015 | 0.698 ± 0.02 |
| TLDRASNCWRGT [YBL006W-A C-terminal 12 aa] | 0.709 ± 0.016 | 0.714 ± 0.062 |
| SGFQFPFFGEEK [MRPL7 C-terminal 12 aa] | 0.717 ± 0.014 | 0.695 ± 0.037 |
| QNDRRSVLKKYI [YER010C C-terminal 12 aa] | 0.69 ± 0.025 | 0.666 ± 0.021 |
| GYETAIHYLRMY [TPC1 C-terminal 12 aa] | 0.701 ± 0.013 | 0.3927 ± 0.0037 |
| KQGPKNLKKTKK [TAF13 C-terminal 12 aa] | 0.704 ± 0.0098 | 0.679 ± 0.0097 |
| ENLENKINNLSK [STF1 C-terminal 12 aa] | 0.709 ± 0.025 | 0.698 ± 0.034 |
| LNELGEFKVINS [NPR2 C-terminal 12 aa] | 0.689 ± 0.014 | 0.6914 ± 0.0059 |
| ILNCVGSAKISG [YGR291C C-terminal 12 aa] | 0.668 ± 0.025 | 0.654 ± 0.02 |
| KVEFSKSETKTL [MSL1 C-terminal 12 aa] | 0.71 ± 0.018 | 0.6736 ± 0.0014 |
| KQQSWLRRVIGY [ENB1 C-terminal 12 aa] | 0.696 ± 0.015 | 0.688 ± 0.038 |
